Assay results as given in the nanobody polyreactivity screen of Harvey et al. (2022).

Assay: yeast display, Sf9 membrane polyspecificity reagent, FACS + sequencing; frameworks hold sequencing errors
In short: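 A nanobody's polyreactivity label depends on the gate it was sorted from. Yeast display cells were stained with 10% biotinylated, detergent-solubilized Sf9 membrane reagent for 1 hour at 4 °C, enriched on streptavidin microbeads and sorted by FACS. The low and high (top ~1%) gates were set on anti-HA fluorescence for expression and streptavidin fluorescence for reagent binding.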

QVQLVESGGGLVQAGGSLRLSCAASGSIFPVNTMGWYRQAPGKERELVAAITQRGGRTYYADSVKGRFTISRDNAKNTVYFQMNSLKPEDTAVYYCNRDLGAGGYDYWGQGTQVTVSS
polyreactivity (PSR sort gate): low polyreactivity

QVQLVESGGGLVQAGGSLRFSCAASGFIFTLYAMGWYRQAPGKERELVASIRGSGGNTYYADSVKGRFTISRDNEKNTVYLQMNSLKPEDTAVYYCAARTYRRPYYSWGQGTQVTVSS
polyreactivity (PSR sort gate): high polyreactivity

QVQLVESGAGLVHAGGSLRLSCAASGSTFSPYAMGWYRQAPGKESELVAAITSSGGSTYYADSVKGRFTISRDNAKNTVYLQMISLKPEDTALYYCAAVGYYTSTYDLYDYYYWGQGTHVTVSS
polyreactivity (PSR sort gate): low polyreactivity

QVQLVESGGGLVQAGGSLRLSCAASGSTLVAYAMGWYRQAPGKERELVAAISRSGGNTYYADSVKGRFTISRDNAKNTVYFQMISLKPEDTAVYYCAAVRLYRYDYWGQCTQVTVSS
polyreactivity (PSR sort gate): low polyreactivity

QVQLVESGGGLVQAGGSLRLSCAASGSILFSYAMGWYRQAPGKERELVAAINRGDGNTYADSVKGRFTISRDNAKNTVYLQMNSLKPEDTAVYYCNADLFPGYVSYPEYDYWGQGTQVTVSS
polyreactivity (PSR sort gate): low polyreactivity

QVQLVESGGGLVQAGGSLRLSCAASGSTFDFYAMGWYRQAPGKERELVAAITSGGTTNYADSVKGRFTISRDNAKNTVYLQINSLKPEDTAVYYCNAYYLGWYRVRAVTGYYYWGQGTQVTVSS
polyreactivity (PSR sort gate): low polyreactivity

QVQLVESGGGLVQAGGSLSLSCAASGSTFKHYAMGWYRKAPGKERELVAAISSRGGSTHYADSVKGRFTISRDNAKNTVYLQMNSLKPEDTAVYYCARDTDPQSSRSSDYDYWGQGTQVTVSS
polyreactivity (PSR sort gate): low polyreactivity

HVQLVESGGGLVQAGGSLRLSCAASGLTFDVNAMGWYRQAARKERELVAAITADDGSTYYADSVKGRFTISRDNAKNTVYLQMNSLKPEDTAVYYCAADYVNLPYIMDYWGQGTQVTVSS
polyreactivity (PSR sort gate): low polyreactivity

QVQLVESGGGLVQAGGSLRLSCAASGSIFRGNGMGWYTQAPGKERELVAAISRSGGRTYYADSVKGRFTISRDNAKNTVYLQMISLNPEDTAVYSCNAARSYQYDYWGQGTQVTVSS
polyreactivity (PSR sort gate): high polyreactivity

QVQLVESGGGLVQAGGSLRLSCAASGRTFNLYAMGWYRQAPGKEREFVAAISYSGDSTYYADSVKGRFTISRDNAKNTVYLQMNSLKPEDTAVYYCNADRLQVTRTYDYWGQGTQVTVSS
polyreactivity (PSR sort gate): low polyreactivity

QVQLVESGGGLVQAGGSLRLSCAASGSTFTNYAMGWYRQAPGKERELLARITYNVGRTYYADSVKGRFTISRDNAKNTVYLQMNSLKPEDTAVYYCAAGVGWRYRVRWYYSLGDYWGQGTQVTVSS
polyreactivity (PSR sort gate): high polyreactivity

QVQLVESGGGLVQAGGSLRLICAASGLIFAVYAMGWYRQAPGKERELVAGISASAASTYYADSVKGRFTISRDNAKNTVFLQMNSLNPEDTAVYYCAADFYWFWTYGTLWYGYEYWGLGTQVTVSS
polyreactivity (PSR sort gate): high polyreactivity

QVHLVESGGGLVQAGGSLRLICAASGFIFPRTAMGSYRQAPGKERELVAAISVSGGSTYYADSVKGRFTISRDYAKNTVYLQMNSLKPEDTAVYYCAKRTWDLRRTRHYYWGQGNQVTVSS
polyreactivity (PSR sort gate): low polyreactivity

QVQLVESGGGLVQAGGSLRLSCAASGFTFPYYAMGWYRQAPGKERELVAAISSSGGRTYYADSVKGRFTISRDNAKNTVYLQMNSLKPEDTAVYYCAVRGKAYRRLRDYWGQGTQVTVSS
polyreactivity (PSR sort gate): high polyreactivity

QVQLVESGGGLVQAGGSLRLSCAASGFIFGAYAMGWYRQAPGKESELVAAISWSGGRTYYADSLTGRFTISRDNAKNTVYLQMNSLKPEDTAVYYCAAAVYTTRYSASEYWGQGTEVTVSS
polyreactivity (PSR sort gate): high polyreactivity

QGQLVESGGGLVQAGVSLRLTCAASGSTFLTNSMGWYRQAPGKEREFVAAISRTGGSTYYADSVKGRFTISRDNAKNTVYLQMNSLKPEDTAVYYCAVYPYGRWLNYWGQGTQVTVSS
polyreactivity (PSR sort gate): high polyreactivity

QVQLVESGGGLVQAGCSLRLSCAASGSIFYRYAMGWYRQAPGKERELVAAISRSGGRTYYADSVKGRFTISRDNAKNTVYIQMNSLKPEDTAVYNCAAESTVGTDLGGDSWGQGTQVTVSS
polyreactivity (PSR sort gate): high polyreactivity

QDQHVESGGGLVQAGGSQRLSCAAYGFIFWIYAMGWYRQAPGKEREFVAVITYRGDTTYYADSVKGRFTISRDNAKNTVFLQMNSMKPEDTAVYYCAAYTVQKYGYWGQGTQVTVSS
polyreactivity (PSR sort gate): low polyreactivity

QVQLVESGGGLVQAGGSLRLSCAASGRTFFTNTMGWYRQAPGKERELVAAITRSGASTYYADSVKGRFTISRDNAKNTVYLQMNSLKPEDTAVYYCAAQRSKYSTVGKYGYWGQGTQVTVSS
polyreactivity (PSR sort gate): high polyreactivity

QVQQQESGGGLVQAGGSLRLSCAASGTIFQLTVMGRYRQASGKERELVASIDYGGNTNYADSVKGRFTISRDNAKNTVYLQMNSLKPEDTAVYFCAASSDSWTTHPYWGQGTQVTVSS
polyreactivity (PSR sort gate): low polyreactivity

QVQLVESGGGLVQAGGSLRLSCAASGRIFTYYAMGWYRQAPGKERELVAAISSGGSTYYADSVKGRFTISRDNAKNTVYLQMNSLKPEDTAVYYCAAEPWYYPYLSPTYGYWGHGTQVTVSS
polyreactivity (PSR sort gate): low polyreactivity

QVQLVESGGGIVQAGGSLRLSCAASGSILDPNAMGTYRQAPGKEREFVASISASGGSTYYADSVKGRFSISRDIAKNTVYLQLNSLKPEDTAVYYCATLQGDSSSQYDYWGQGTQVTVSS
polyreactivity (PSR sort gate): high polyreactivity

QVQLVESGGRLVQAGGSLRLSCAASGRIFGYYAMGWYRQAPGKERELVAAINYSGGSTYYADSVKGRFTISRDNAKNTVYLQMNSLKPEDTAVYYCNAVRYTLLYYWGQGTQVTVSS
polyreactivity (PSR sort gate): high polyreactivity

QQQLVESGGGVVQAGGSLRLSCAASGSTFSGYAMGWYIPAPGKERELVAAIRKSGGSKYYADSVKGRFTISRDNAKNTVYLQMNSLKPEDTAVYYCNARRDLQYSQYKRYGYWGQGTQVNVSS
polyreactivity (PSR sort gate): low polyreactivity

QVQLVESGGGLVQAGGSLRLSCAASGRTFASNAMGWYRQAPGKERELVAAISSSGGRTYYADSVKGRFTISRDNAKNTVYLQMNSLKPEDTAVYYCAKVGPVYKYDYWGQGTQVTVSS
polyreactivity (PSR sort gate): high polyreactivity

QVQLVESGGGLVQAGGSLRLSCAASGIIFIAYAMGWYRQAPGKERELVADISIGGSTNYADSVKGRFTISRDNAKNTVYLQMNSLKPEDTAVYYCNAGGGFYGSTVEHDYWGQGTQVTVSS
polyreactivity (PSR sort gate): low polyreactivity

QVQLVESGGGLVQAGGSLRLSCAASGRITYYAMGWYRQAPGKERELVAAITWSGGRTYYADSVKGRFTISRDNAKNTVYLQMNSLKPEDTAVYYCAKTRIYSKHWTEPYFYRVDSWGQGTQVTVSS
polyreactivity (PSR sort gate): high polyreactivity

QVQLVESGGGLVQAGGSLRLSCAASGRISPSYAMGWYRHATGKERELVAAISRGGSTSYADSVKGLFTISRDNAKNTVYLQMNSLKPEDTAVYYCSTRGPRYRNYYWGQGTQVTVSS
polyreactivity (PSR sort gate): high polyreactivity

QDQLVESGGGLVQAGGSLRLSCAASGSIFPVYDMGWSRQAPGTEREMVAAISVSGGSTYYADSVKGRFTISRDNAKNTVYLQMKSLKPEDTAVYYCIADVHLYWYWYYEREDYWGQGTQVTVSS
polyreactivity (PSR sort gate): low polyreactivity

QVQLVESGGGLVQAGGSLRLSCAASGRTFRYYAMGWYRQAPGKERELVAAISWNGANTYYADSVKGRFTISRDNAKNTVYLQMNSLKPEDTAVYYCAANYYRWKGYDYWGQGTQVTVSS
polyreactivity (PSR sort gate): high polyreactivity

QVQLVESGGGLVQAGGSLRLSCAASGSTFTVYAMGWYRQAPGKERELVAAISWGGGSTNYADSVKGRFTISRDNAKNTVYLQMNSLKPEDTAVYYCNADIDDIIGSWGDYWGQGTQVTVSS
polyreactivity (PSR sort gate): low polyreactivity

QVQLVESGGGLVQAGGSLRLSCAASGSIFDLYAMGWYRQAPGKERELVASIRYSGGRTYYADSVKGRFTISRDNAKNTVYLQMNSLKPEDTAVYYCNRDGGYTFIMDYWGQGTQVTVSS
polyreactivity (PSR sort gate): low polyreactivity
